Molecular target: GFP-LL5β (-ADA) (UniProt Q86SQ0)
Test: co-IP

UniProt Q86SQ0, sequence (Q86SQ0 whole entry): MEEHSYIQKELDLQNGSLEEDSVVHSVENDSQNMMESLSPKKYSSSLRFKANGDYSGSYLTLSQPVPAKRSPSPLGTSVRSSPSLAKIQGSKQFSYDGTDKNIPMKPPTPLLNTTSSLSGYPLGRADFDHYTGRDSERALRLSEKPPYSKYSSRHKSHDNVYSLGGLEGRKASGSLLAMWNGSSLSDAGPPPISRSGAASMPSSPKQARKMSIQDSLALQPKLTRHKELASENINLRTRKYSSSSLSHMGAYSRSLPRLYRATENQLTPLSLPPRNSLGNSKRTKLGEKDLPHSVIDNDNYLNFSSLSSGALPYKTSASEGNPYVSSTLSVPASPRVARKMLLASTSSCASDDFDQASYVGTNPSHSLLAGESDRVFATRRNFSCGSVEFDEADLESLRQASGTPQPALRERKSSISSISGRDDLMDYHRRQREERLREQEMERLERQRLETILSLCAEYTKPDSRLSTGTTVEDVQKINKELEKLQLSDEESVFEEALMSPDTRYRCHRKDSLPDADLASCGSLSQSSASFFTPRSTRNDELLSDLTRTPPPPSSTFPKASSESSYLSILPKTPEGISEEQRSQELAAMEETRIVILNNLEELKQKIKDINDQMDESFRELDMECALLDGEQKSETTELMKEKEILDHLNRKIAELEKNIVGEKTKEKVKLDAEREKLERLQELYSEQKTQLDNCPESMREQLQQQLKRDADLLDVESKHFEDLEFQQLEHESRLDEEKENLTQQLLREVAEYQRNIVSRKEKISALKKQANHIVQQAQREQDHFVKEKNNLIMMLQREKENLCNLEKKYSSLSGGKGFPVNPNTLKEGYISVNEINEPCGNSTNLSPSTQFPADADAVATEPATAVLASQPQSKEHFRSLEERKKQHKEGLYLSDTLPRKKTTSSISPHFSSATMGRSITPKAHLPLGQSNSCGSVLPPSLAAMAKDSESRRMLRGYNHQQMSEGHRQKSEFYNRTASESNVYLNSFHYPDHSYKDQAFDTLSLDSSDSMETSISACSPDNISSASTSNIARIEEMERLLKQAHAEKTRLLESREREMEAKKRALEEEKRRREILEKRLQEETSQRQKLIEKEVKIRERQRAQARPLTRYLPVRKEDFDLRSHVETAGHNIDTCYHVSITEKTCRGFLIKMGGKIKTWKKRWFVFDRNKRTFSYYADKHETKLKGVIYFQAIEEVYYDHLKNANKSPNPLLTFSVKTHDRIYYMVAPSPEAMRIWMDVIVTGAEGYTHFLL

fold decrease of association against GFP-LL5β: 2 fold
B1: endogenous CLASP2 (natural protein)
chain: MAMGDDKSFDDEESVDGNRPSSAASAFKVPAPKTSGNPANSARKPGSAGGPKVGGASKEGGAGAVDEDDFIKAFTDVPSIQIYSSRELEETLNKIREILSDDKHDWDQRANALKKIRSLLVAGAAQYDCFFQHLRLLDGALKLSAKDLRSQVVREACITVAHLSTVLGNKFDHGAEAIVPTLFNLVPNSAKVMATSGCAAIRFIIRHTHVPRLIPLITSNCTSKSVPVRRRSFEFLDLLLQEWQTHSLERHAAVLVETIKKGIHDADAEARVEARKTYMGLRNHFPGEAETLYNSLEPSYQKSLQTYLKSSGSVASLPQSDRSSSSSQESLNRPFSSKWSTANPSTVAGRVSAGSSKASSLPGSLQRSRSDIDVNAAAGAKAHHAAGQSVRSGRLGAGALNAGSYASLEDTSDKLDGTASEDGRVRAKLSAPLAGMGNAKADSRGRSRTKMVSQSQPGSRSGSPGRVLTTTALSTVSSGVQRVLVNSASAQKRSKIPRSQGCSREASPSRLSVARSSRIPRPSVSQGCSREASRESSRDTSPVRSFQPLASRHHSRSTGALYAPEVYGASGPGYGISQSSRLSSSVSAMRVLNTGSDVEEAVADALKKPARRRYESYGMHSDDDANSDASSACSERSYSSRNGSIPTYMRQTEDVAEVLNRCASSNWSERKEGLLGLQNLLKNQRTLSRVELKRLCEIFTRMFADPHGKRVFSMFLETLVDFIQVHKDDLQDWLFVLLTQLLKKMGADLLGSVQAKVQKALDVTRESFPNDLQFNILMRFTVDQTQTPSLKVKVAILKYIETLAKQMDPGDFINSSETRLAVSRVITWTTEPKSSDVRKAAQSVLISLFELNTPEFTMLLGALPKTFQDGATKLLHNHLRNTGNGTQSSMGSPLTRPTPRSPANWSSPLTSPTNTSQNTLSPSAFDYDTENMNSEDIYSSLRGVTEAIQNFSFRSQEDMNEPLKRDSKKDDGDSMCGGPGMSDPRAGGDATDSSQTALDNKASLLHSMPTHSSPRSRDYNPYNYSDSISPFNKSALKEAMFDDDADQFPDDLSLDHSDLVAELLKELSNHNERVEERKIALYELMKLTQEESFSVWDEHFKTILLLLLETLGDKEPTIRALALKVLREILRHQPARFKNYAELTVMKTLEAHKDPHKEVVRSAEEAASVLATSISPEQCIKVLCPIIQTADYPINLAAIKMQTKVIERVSKETLNLLLPEIMPGLIQGYDNSESSVRKACVFCLVAVHAVIGDELKPHLSQLTGSKMKLLNLYIKRAQTGSGGADPTTDVSGQS

Source: publication doi:10.1101/2021.09.02.458712
